As usually defined, the Kd is a measure of binding affinity in units of concentration. Read a high Kd as lower affinity.

The source of these data is patent US20220378893A1 (INDUSTRY UNIVERSITY COOPERATION FOUNDATION HANYANG …, published 2022).

The chains are these.
B1: neutrophil cytosol factor 1 (p47phox), endogenous in THP-1 cells (other)
chain: MGDTFIRHIALLGFEKRFVPSQHYVYMFLVKWQDLSEKVVYRRFTEIYEFHKTLKEMFPIEAGAINPENRIIPHLPAPKWFDGQRAAENRQGTLTEYCSTLMSLPTKISRCPHLLDFFKVRPDDLKLPTDNQTKKPETYLMPKDGKSTATDITGPIILQTYRAIANYEKTSGSEMALSTGDVVEVVEKSESGWWFCQMKAKRGWIPASFLEPLDSPDETEDPEPNYAGEPYVAIKAYTAVEGDEVSLLEGEAVEVIHKLLDGWWVIRKDDVTGYFPSMYLQKSGQDVSQAQRQIKRGAPPRRSSIRNAHSIHQRSRKRLSQDAYRRNSVRFLQQRRRQARPGPQSPGSPLEEERQTQRSKPQPAVPPRPSADLILNRCSESTKRKLASAV
notes: Human by the cell line; also called p47phox, 45K

The target of test [1] is unlabeled TBK1 (in vitro titration). Kind of test: fluorescence titration of BODIPY FL-labeled MPT63 with unlabeled TBK1, curve fitting, 25 C.
Test [2] deals with unlabeled p47phox (in vitro titration). The test can be described thus: fluorescence titration of BODIPY FL-labeled MPT63 with unlabeled p47phox, curve fitting, 25 C.
Test [3] concerns the target unlabeled HK2 (in vitro titration). Kind of test: fluorescence titration of BODIPY FL-labeled MPT64 with unlabeled HK2, curve fitting, 25 C.
Test [4] has as its target unlabeled TBK1 (in vitro titration). The test can be described thus: fluorescence titration of BODIPY FL-labeled MPT64 with unlabeled TBK1, curve fitting, 25 C.
The target in test [5] is T1, p67phox, endogenous in THP-1 cells (human, UniProt P19878 1-526).
T1 sequence: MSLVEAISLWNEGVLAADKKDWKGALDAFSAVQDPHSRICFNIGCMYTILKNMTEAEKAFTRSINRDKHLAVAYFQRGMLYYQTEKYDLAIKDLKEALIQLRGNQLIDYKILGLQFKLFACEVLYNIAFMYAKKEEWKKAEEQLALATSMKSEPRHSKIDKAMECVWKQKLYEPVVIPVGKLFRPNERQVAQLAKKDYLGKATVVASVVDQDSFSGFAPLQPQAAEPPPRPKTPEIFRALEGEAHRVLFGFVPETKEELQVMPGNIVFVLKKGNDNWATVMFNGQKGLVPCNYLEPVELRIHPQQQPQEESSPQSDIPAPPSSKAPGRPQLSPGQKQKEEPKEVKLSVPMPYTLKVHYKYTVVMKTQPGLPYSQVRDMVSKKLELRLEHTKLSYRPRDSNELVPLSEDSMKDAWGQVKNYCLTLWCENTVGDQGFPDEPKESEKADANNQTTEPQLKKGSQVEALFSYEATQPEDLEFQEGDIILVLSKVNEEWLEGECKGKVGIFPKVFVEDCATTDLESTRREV
The test can be described thus: co-IP in THP-1 cells treated with p47 peptide.

Test [6] addresses B1. Kind of test: co-IP in THP-1 cells treated with p47 peptide.

unlabeled TBK1 (in vitro titration), sequence (Q9UHD2 whole entry): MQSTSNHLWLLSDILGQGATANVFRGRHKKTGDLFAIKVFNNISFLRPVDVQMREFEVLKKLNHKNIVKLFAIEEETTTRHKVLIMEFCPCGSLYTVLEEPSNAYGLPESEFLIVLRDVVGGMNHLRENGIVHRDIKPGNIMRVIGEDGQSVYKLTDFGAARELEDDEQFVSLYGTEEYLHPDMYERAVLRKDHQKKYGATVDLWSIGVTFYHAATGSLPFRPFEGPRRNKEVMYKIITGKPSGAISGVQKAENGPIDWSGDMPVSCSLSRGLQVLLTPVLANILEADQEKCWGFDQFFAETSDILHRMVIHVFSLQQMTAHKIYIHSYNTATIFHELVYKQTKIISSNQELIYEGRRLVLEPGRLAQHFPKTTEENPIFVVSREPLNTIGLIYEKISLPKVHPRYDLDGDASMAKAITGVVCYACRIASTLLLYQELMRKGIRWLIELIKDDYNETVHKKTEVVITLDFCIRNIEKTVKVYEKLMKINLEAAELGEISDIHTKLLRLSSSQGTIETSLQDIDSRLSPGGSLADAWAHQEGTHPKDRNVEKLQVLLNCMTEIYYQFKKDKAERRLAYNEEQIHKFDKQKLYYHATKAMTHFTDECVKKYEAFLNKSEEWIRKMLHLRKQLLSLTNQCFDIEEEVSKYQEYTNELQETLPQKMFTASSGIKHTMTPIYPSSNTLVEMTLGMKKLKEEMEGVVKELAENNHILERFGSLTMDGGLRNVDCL

Regarding “recombinant MPT63 (rMPT63) (from UniProt P9WIP1 30-159)”, the Kd in test [1] was 178 nM; in test [2] it was 345 nM.
Consider “recombinant MPT64 (rMPT64) (from UniProt P9WIN9 24-228)”, for which the Kd in test [3] came out at 134 nM; in test [4] it was 193 nM.
As to B1, the binding result in test [5] is “binds”.

B2: p22phox, endogenous in THP-1 cells (other)
chain: GQIEWAMWANEQALASGLILITGGIVATAGRFTQWYFGAYSIVAGVFVCLLEYPRGKRKKGSTMERWGQKYMTAVVKLFGPFTRNYYVRAVLHLLLSVPAGFLLATILGTACLAIASGIYLLAAVRGEQWTPIEPKPRERPQIGGTIKQPPSNPPPRPPAEARKKPSEEEAAVAAGGPPGGPQVNPIPVTDEVV
Consider B2, for which the binding result in test [6] is given as “binds”.
